14 molecules from patent US20220096653A1, “CONJUGATE COMPRISING LIGAND AND CEACAM5 ANTIBODY FAB FRAGMENT” (ASTELLAS PHARMA INC., priority 2019, published 2022) can be followed below.

What is called EC50 is the concentration giving half of the maximal effect. Read a high EC50 as lower potency in that assay.

The conditions of data set [1]: mouse, in vivo.
Procedure: A Gd-labeled conjugate of the conjugate containing a peptide linker produced in one of the above Examples was administered from the tail vein of mice (BALB/c or BALB/c nu/nu) so that the protein mass was 0.02 mg (100 μL) per animal. After about 24 hours, the mice were sacrificed and the kidneys were removed, and the amount of Gd in the kidneys was measured using ICP-MS. The present test was carried out in 3 cases in each group, the mean value of the 3 cases was calculated, and the amount of Gd contained per kidney after administration was shown as a percentage (% of dose/tissue) of the total amount of Gd administered.
Based on the percentage of the control conjugate (% of dose/tissue), the proportion of decrease in the amount of Gd contained in the kidneys of each of the conjugates having a peptide linker was determined and shown in Table 28.
For data set [2], the target named is T1, CEACAM5 (R&D Systems, 4128-CM-050) (human, UniProt P06731 35-685).
T1 construct: Immobilised on the ELISA plate; also called human CEACAM5
T1 sequence (looked up): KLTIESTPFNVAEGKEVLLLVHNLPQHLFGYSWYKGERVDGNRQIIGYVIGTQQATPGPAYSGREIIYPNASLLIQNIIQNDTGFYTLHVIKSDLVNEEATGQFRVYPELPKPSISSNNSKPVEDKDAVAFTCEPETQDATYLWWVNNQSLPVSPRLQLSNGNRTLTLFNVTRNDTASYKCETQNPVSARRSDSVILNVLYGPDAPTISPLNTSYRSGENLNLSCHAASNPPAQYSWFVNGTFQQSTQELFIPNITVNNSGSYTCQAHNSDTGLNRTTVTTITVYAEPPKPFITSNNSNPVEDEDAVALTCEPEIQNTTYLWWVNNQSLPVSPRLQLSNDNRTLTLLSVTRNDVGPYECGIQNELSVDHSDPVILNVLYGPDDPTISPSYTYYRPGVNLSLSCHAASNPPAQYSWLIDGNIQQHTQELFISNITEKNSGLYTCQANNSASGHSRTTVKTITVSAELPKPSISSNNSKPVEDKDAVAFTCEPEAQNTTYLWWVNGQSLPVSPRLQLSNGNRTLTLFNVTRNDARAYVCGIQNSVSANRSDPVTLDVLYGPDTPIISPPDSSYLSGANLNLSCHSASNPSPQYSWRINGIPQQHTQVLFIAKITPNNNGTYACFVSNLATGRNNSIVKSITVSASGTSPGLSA
Nature of the data set: ELISA on immobilised CEACAM5, 4-parameter fit, duplicate. As for the experimental part: Each anti-human CEACAM5 antibody Fab fragment conjugate prepared in Example 2 was subjected to ELISA to evaluate the binding activity thereof to CEACAM5. In the present test, a phosphate buffer (Nacalai Tesque Inc., 0.1 mol/L-Phosphate Buffer Solution (pH 7.2)) prepared to 10 mM by diluting 10-fold with distilled water was used as a solvent for an antigen immobilization liquid, and 20×PBS/Tween 20 Buffer (Thermo Fisher Scientific Inc., 28352) diluted 20-fold with distilled water was used as a wash liquid. In addition, for bovine serum albumin (BSA) used in the present test, 30% Bovine Serum Albumin solution (Sigma-Aldrich, Inc., A9576-50ML) was added in an appropriate proportion for use. CEACAM5 (R&D Systems, 4128-CM-050) was diluted with a 10 mM phosphate buffer (pH 7.2) to 0.1 μg/mL, and added to a Nunc MaxiSorp White 384 plate (Nunc, 4603272) at 30 μL per well, and the plate was incubated overnight at 4° C. for immobilization. The CEACAM5 immobilization liquid was removed by reverse centrifugation, and then blocking was carried out by adding a PBS/Tween 20 buffer containing 5.0% BSA. Thereafter, the blocking solution was removed by reverse centrifugation, a solution of each CEACAM5 antibody Fab² fragment conjugate described above or a Fab² fragment having no labeling portion (PB009-01) as a control at about 10000 ng/mL was diluted in 14 steps by 3-fold dilution using a PBS/Tween 20 buffer containing 1.0% BSA, and 30 μL was added per well and incubated at room temperature for 60 minutes. The plate was washed 3 times with a PBS/Tween 20 buffer, and Horseradish Peroxidase (HRP)-labeled goat anti-human IgG (H+L chain) antibody (MBL Life Sciences, 206) diluted 1000-fold using a PBS/Tween 20 buffer containing 5.0% BSA was added at 30 μL per well and incubated at room temperature for 30 minutes. The plate was washed 3 times with a PBS/Tween 20 buffer, and ECL Prime Western Blotting DETECTION Reagent (GE Healthcare, RPN2232) as a substrate was added at 30 μL per well. The substrate was incubated at room temperature for 15 minutes, and then a signal value thereof was measured using an Envision counter (PerkinElmer, Inc.).
The test for each antibody was carried out in duplicate, and an EC₅₀ value was calculated using a 4-parameter logistic curve model.
On the technique in general: ELISA stands for enzyme-linked immunosorbent assay.

B1: [Gd/DOTA-NH—CH2-(1,3-Ph)-C(═O)-Asp-Gly-Lys*-Z2(#N)]p-Fab^2 (conjugate)
heavy: EVQLVESGGGLVQPGGSLRLSCAASGFNIRDTYMHWVRQAPGKGLEWVARIDPANGNSRYVPKFQGRFTISADTSRNTAYLQMNSLRAEDTAVYYCAPFGYYVSDYAMAYWGQGTLVTVSSASTKGPSVFPLAPSSKSTSGGTAALGCLVKDYFPEPVTVSWNSGALTSGVHTFPAVLQSSGLYSLSSVVTVPSSSLGTQTYICNVNHKPSNTKVDKKVEPKSCD
light: DIQLTQSPSSLSASVGDRVTITCRAGESVDIFGVGFLHWYQQKPGKAPKLLIYRASNLESGIPSRFSGSGSRTDFTLTISSLQPEDFATYYCQQTNEDPYTFGQGTKVEIKRTVAAPSVFIFPPSDEQLKSGTASVVCLLNNFYPREAKVQWKVDNALQSGNSQESVTEQDSKDSTYSLSSTLTLSKADYEKHKVYACEVTHQGLSSPVTKSFNRGEC
As for B1, in data set [1], the “% of dose/tissue (amount of Gd contained per kidney)” value is on record as 14.8 % of dose/tissue and the “Proportion of decrease (amount of Gd contained in the kidneys)” value is listed as 52.2%.

B2: [Gd/DOTA-NH—CH2-(1,3-Ph)-C(═O)-Met-Gly-Lys*-Z2(#N)]p-Fab^2 (conjugate)
heavy: B1 heavy
light: B1 light
On to B2, for which, in data set [1], the “% of dose/tissue (amount of Gd contained per kidney)” value is on record as 15.4 % of dose/tissue and the “Proportion of decrease (amount of Gd contained in the kidneys)” value is given as 50.3%.

B3: (Y-S1-X)p-Fab^2 with Y Gd/DOTA, S1 - (bond), X -Gly-Tyr-NH-(CH2)5-Z1(#S)- (Fab, V domains shown)
VH: EVQLVESGGGLVQPGGSLRLSCAASGFNIRDTYMHWVRQAPGKGLEWVARIDPANGNSRYVPKFQGRFTISADTSRNTAYLQMNSLRAEDTAVYYCAPFGYYVSDYAMAYWGQGTLVTVSS
VL: DIQLTQSPSSLSASVGDRVTITCRAGESVDIFGVGFLHWYQQKPGKAPKLLIYRASNLESGIPSRFSGSGSRTDFTLTISSLQPEDFATYYCQQTNEDPYTFGQGTKVEIKR
modifications: labeling may sit on this chain; sites not stated; labeling portion (MW 1045) on amino groups of the Fab, sites and chain not stated; 1-3 per Fab by MS
notes: also called Ex-No 37; conjugate 37
Consider B3, for which the midpoint of the response in data set [2], the EC50, lay at 0.23 nM.

B4: (Y-S1-X)p-Fab^2 with Y Gd/DOTA, S1 - (bond), X -Gly-Tyr*-CH2-C-(═O)-Lys*-Z2(#N)- (Fab, V domains shown)
VH: B3 VH
VL: B3 VL
modifications: labeling may sit on this chain; sites not stated; labeling portion (MW 1046) on amino groups of the Fab, sites and chain not stated; 1-3 per Fab by MS
notes: also called Ex-No 4; conjugate 4
Molecule B4 gave an EC50 in data set [2] of 0.15 nM.

B5: [Gd/4arm-DOTA-CH2-(1,4-Ph)-NH-C(═S)]p-Fab^2 (Fab, V domains shown)
VH: B3 VH
VL: B3 VL
modifications: labeling may sit on this chain; sites not stated; labeling portion (MW 706) on amino groups of the Fab, sites and chain not stated; 1 per Fab by MS
notes: also called Ex-No 48; conjugate 48
B5 displayed an EC50 in data set [2] of 0.21 nM.

B6: (Y-S1-X)p-Fab^2 with Y Gd/DOTA, S1 spacer (p), X -Met-Gly-Lys*-Z2(#N)- (Fab, V domains shown)
VH: B3 VH
VL: B3 VL
modifications: labeling may sit on this chain; sites not stated; labeling portion (MW 1079) on amino groups of the Fab, sites and chain not stated; 1-3 per Fab by MS
notes: also called Ex-No 57; conjugate 57
B6 had a concentration for a half-maximal effect (EC50) in data set [2] of 0.29 nM.

B7: (Y-S1-X)p-Fab^2 with Y Gd/4arm-DOTA, S1 -CH2-(1,4-Ph)-NH-C(═S)-, X -Met-Gly-Lys*-Z2(#N)- (Fab, V domains shown)
VH: B3 VH
VL: B3 VL
modifications: labeling may sit on this chain; sites not stated; labeling portion (MW 1121) on amino groups of the Fab, sites and chain not stated; 1 per Fab by MS
notes: also called Ex-No 54; conjugate 54
In data set [2], B7 returned an EC50 of 0.23 nM.

B8: (Y-S1-X)p-Fab^2 with Y Gd/DOTA, S1 -NH-(CH2CH2O)3-CH-C(═O)-NH-CH2-(1,3-Ph)-C(═O)-, X -Gly-Lys*-C(═S)-NH-(1,4-Ph)-NH-C(═S)- (Fab, V domains shown)
VH: B3 VH
VL: B3 VL
modifications: labeling may sit on this chain; sites not stated; labeling portion (MW 1259) on amino groups of the Fab, sites and chain not stated; 1-3 per Fab by MS
notes: also called Ex-No 44; conjugate 44
In data set [2], B8 came in with an EC50 of 0.29 nM.

B9: (Y-S1-X)p-Fab^2 with Y Gd/4arm-DOTA, S1 spacer (o), X -Met-Gly-Lys*-Z2(#N)- (Fab, V domains shown)
VH: B3 VH
VL: B3 VL
modifications: labeling may sit on this chain; sites not stated; labeling portion (MW 1304) on amino groups of the Fab, sites and chain not stated; 1-2 per Fab by MS
notes: also called Ex-No 59; conjugate 59
In data set [2], B9 displayed an EC50 of 0.3 nM.

B10: (Y-S1-X)p-Fab^2 with Y Gd/DOTA, S1 spacer (k), X -Met-Gly-Lys*-Z2(#N)- (Fab, V domains shown)
VH: B3 VH
VL: B3 VL
modifications: labeling may sit on this chain; sites not stated; labeling portion (MW 1296) on amino groups of the Fab, sites and chain not stated; 1-2 per Fab by MS
notes: also called Ex-No 46; conjugate 46
Take B10: the concentration for a half-maximal effect (EC50) in data set [2] came to 0.22 nM.

B11: (Y-S1-X)p-Fab^2 with Y Gd/4arm-DOTA, S1 -CH2-(1,4-Ph)-NH-C(═S)-, X -Gly-Tyr-Lys*-Z2(#N)- (Fab, V domains shown)
VH: B3 VH
VL: B3 VL
modifications: labeling may sit on this chain; sites not stated; labeling portion (MW 1153) on amino groups of the Fab, sites and chain not stated; 1-2 per Fab by MS
notes: also called Ex-No 56; conjugate 56
Turning to B11, in data set [2], the EC50 worked out at 0.26 nM.

B12: [DFO-C(═O)-(CH2CH2O)4-(1,3-Ph)-C(═O)-Gly-Lys*-Z2(#S)]p-Fab^2 (Fab, V domains shown)
VH: B3 VH
VL: B3 VL
modifications: labeling may sit on this chain; sites not stated; labeling portion (MW 1252) bound via 2-iminothiolane-treated amino groups of the Fab, sites and chain not stated; 1-2 per Fab by MS
notes: No metal; also called Ex-No 61; Conjugate No. 61
In the case of B12, the midpoint of the response in data set [2], the EC50, lay at 0.18 nM.

B13: (Y-S1-X)p-Fab^2 with Y Gd/DOTA, S1 spacer (h), X -Met-Gly-Lys*-Z2(#N)- (Fab, V domains shown)
VH: B3 VH
VL: B3 VL
modifications: labeling may sit on this chain; sites not stated; labeling portion (MW 1090) on amino groups of the Fab, sites and chain not stated; 1-2 per Fab by MS
notes: also called Ex-No 43; conjugate 43
In data set [2], B13 gave a concentration giving a half-maximal response (EC50) of 0.23 nM.

B14: [Gd/DOTA]p-Fab^2 (Fab, V domains shown)
VH: B3 VH
VL: B3 VL
modifications: labeling may sit on this chain; sites not stated; [Gd/DOTA] (MW 542) on amino groups of the Fab, sites and chain not stated; 1-2 per Fab by MS
notes: also called Ex-No 47; conjugate 47
Molecule B14 showed a half-maximal effective concentration (EC50) in data set [2] of 0.25 nM.
